In PMC11540549 (Biochemistry, 2019):
No end group written: not given here.

T1: TCF19 (DDCAC) PHD (UniProt Q9Y242 296-342)
T1 sequence: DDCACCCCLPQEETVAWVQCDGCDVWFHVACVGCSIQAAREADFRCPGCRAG


Legend:
TCF19 PHD C324A = TCF19 PHD C324A (UniProt Q9Y242); assay: NMR titration
TCF19 PHD R330Y = TCF19 PHD R330Y (UniProt Q9Y242); assay: NMR titration
TCF19 PHD W307Y = TCF19 PHD W307Y (UniProt Q9Y242); assay: NMR titration
TCF19 (DDCAC) PHD = molecular target: T1, TCF19 (DDCAC) PHD; assay: other fluorescence titration

Molecule	Kd (TCF19 PHD C324A)	Kd (TCF19 PHD R330Y)	Kd (TCF19 PHD W307Y)	Kd (TCF19 (DDCAC) PHD)
H3K4me3 peptide (residues 1-12) (from UniProt P68431 2-13)	440 µM	400 µM	2000 µM	–
ARTK(Me3)QTARKSTG (peptide, UniProt P68431 2-13, looked up) [H3K4me3 peptide (residues 1-12)]	–	–	–	4.7 µM
